We go through two molecules from PMC3082181 (The Journal of Cell Biology, 2011).

What all share (test): co-IP
The target in one assay is T1, Flag-Munc18c-Y219F (mouse, UniProt Q60770 1-592, Y219F).
T1 sequence: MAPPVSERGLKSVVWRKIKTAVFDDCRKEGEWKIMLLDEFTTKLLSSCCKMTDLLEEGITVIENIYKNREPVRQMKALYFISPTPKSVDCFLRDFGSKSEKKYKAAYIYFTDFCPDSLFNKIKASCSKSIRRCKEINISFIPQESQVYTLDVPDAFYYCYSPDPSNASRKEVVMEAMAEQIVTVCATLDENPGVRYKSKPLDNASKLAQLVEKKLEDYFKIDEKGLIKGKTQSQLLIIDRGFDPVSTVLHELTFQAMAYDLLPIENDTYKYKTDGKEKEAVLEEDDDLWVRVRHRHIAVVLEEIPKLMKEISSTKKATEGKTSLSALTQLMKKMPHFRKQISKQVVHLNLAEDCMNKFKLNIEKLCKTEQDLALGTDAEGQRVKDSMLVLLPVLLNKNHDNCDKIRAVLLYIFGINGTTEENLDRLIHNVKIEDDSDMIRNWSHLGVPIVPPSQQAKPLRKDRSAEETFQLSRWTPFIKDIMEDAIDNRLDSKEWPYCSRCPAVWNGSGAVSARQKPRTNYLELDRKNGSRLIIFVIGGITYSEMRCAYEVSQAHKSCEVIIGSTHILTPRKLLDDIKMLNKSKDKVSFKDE

The next assay has as its target T2, Flag-Munc18c-Y521F (mouse, UniProt Q60770 1-592, Y521F).
T2 sequence: T1 sequence with F219Y, Y521F

The next assay concerns the target T3, Munc18c (mouse (endogenous in 3T3-L1 adipocytes …, UniProt Q60770 1-592)).
T3 sequence: T1 sequence with F219Y

Where a chain is given by its changes, count along the chain named.

B1: full-length syntaxin 4 (natural protein)
chain: MRDRTHELRQGDNISDDEDEVRVALVVHSGAARLSSPDDEFFQKVQTIRQTMAKLESKVRELEKQQVTILATPLPEESMKQGLQNLREEIKQLGREVRAQLKAIEPQKEEADENYNSVNTRMKKTQHGVLSQQFVELINKCNSMQSEYREKNVERIRRQLKITNAGMVSDEELEQMLDSGQSEVFVSNILKDTQVTRQALNEISARHSEIQQLERSIRELHEIFTFLATEVEMQGEMINRIEKNILSSADYVERGQEHVKIALENQKKARKKKVMIAICVSVTVLILAVIIGITITVG
B1: the “ratio syntaxin 4/Flag-Munc18c, insulin-stimulated versus basal = 1” value with Flag-Munc18c-Y219F amounted to 1; with Flag-Munc18c-Y521F, 1.6.

B2: insulin receptor (receptor)
chain 1: HLYPGEVCPGMDIRNNLTRLHELENCSVIEGHLQILLMFKTRPEDFRDLSFPKLIMITDYLLLFRVYGLESLKDLFPNLTVIRGSRLFFNYALVIFEMVHLKELGLYNLMNITRGSVRIEKNNELCYLATIDWSRILDSVEDNYIVLNKDDNEECGDVCPGTAKGKTNCPATVINGQFVERCWTHSHCQKVCPTICKSHGCTAEGLCCHKECLGNCSEPDDPTKCVACRNFYLDGQCVETCPPPYYHFQDWRCVNFSFCQDLHFKCRNSRKPGCHQYVIHNNKCIPECPSGYTMNSSNLMCTPCLGPCPKVCQILEGEKTIDSVTSAQELRGCTVINGSLIINIRGGNNLAAELEANLGLIEEISGFLKIRRSYALVSLSFFRKLHLIRGETLEIGNYSFYALDNQNLRQLWDWSKHNLTITQGKLFFHYNPKLCLSEIHKMEEVSGTKGRQERNDIALKTNGDQASCENELLKFSFIRTSFDKILLRWEPYWPPDFRDLLGFMLFYKEAPYQNVTEFDGQDACGSNSWTVVDIDPPQRSNDPKSQTPSHPGWLMRGLKPWTQYAIFVKTLVTFSDERRTYGAKSDIIYVQTDATNPSVPLDPISVSNSSSQIILKWKPPSDPNGNITHYLVYWERQAEDSELFELDYCLKGLKLPSRTWSPPFESDDSQKHNQSEYDDSASECCSCPKTDSQILKELEESSFRKTFEDYLHNVVFVPRPS
chain 2: SLEEVGNVTATTLTLPDFPNVSSTIVPTSQEEHRPFEKVVNKESLVISGLRHFTGYRIELQACNQDSPDERCSVAAYVSARTMPEAKADDIVGPVTHEIFENNVVHLMWQEPKEPNGLIVLYEVSYRRYGDEELHLCVSRKHFALERGCRLRGLSPGNYSVRVRATSLAGNGSWTEPTYFYVTDYLDVPSNIAKIIIGPLIFVFLFSVVIGSIYLFLRKRQPDGPMGPLYASSNPEYLSASDVFPSSVYVPDEWEVPREKITLLRELGQGSFGMVYEGNAKDIIKGEAETRVAVKTVNESASLRERIEFLNEASVMKGFTCHHVVRLLGVVSKGQPTLVVMELMAHGDLKSHLRSLRPDAENNPGRPPPTLQEMIQMTAEIADGMAYLNAKKFVHRDLAARNCMVAHDFTVKIGDFGMTRDIYETDYYRKGGKGLLPVRWMSPESLKDGVFTASSDMWSFGVVLWEITSLAEQPYQGLSNEQVLKFVMDGGYLDPPDNCPERLTDLMRMCWQFNPKMRPTFLEIVNLLKDDLHPSFPEVSFFYSEENKAPESEELEMEFEDMENVPLDRSSHCQREEAGGREGGSSLSIKRTYDEHIPYTHMNGGKKNGRVLTLPRSNPS
For the molecule B2, the “fold change of coprecipitated IR, insulin versus unstimulated” value with Munc18c was about 2 fold.
